Test results reported in the DeepSol protein solubility set.

experiment: soluble on expression in E. coli; label from the status in PepcDB or PDB records

| Sequence | soluble on expression in E. coli |
| --- | --- |
| MRKINTNKNDSQIYSRGFIMRNIRPSQLGQYIRRALRLHFIPVVLVAAPSVMANTNQETEQLETLVVTASALKVETPAQETPKALSIVTQEEIVARAPQKLDEALRYTSGVTAQPYGADNDTDWLKVRGFDAATYQDGSRLFRDGYYTWLIEPYALERIEVLKGPASILYGEAPPGGVVNAVQKKPTDIPQGEVGLQVGNDALRTLTLDISDYANQDGSVRYRLVALMKENDGQLNGTQTSRNYLAPSLSIDISEQTRLTLLASFLEDSGVPTNPFFPAAGTLIDSNFGHIDPSTNLGQPDYDKYERRQVSLGYLFEHDLNDVWALSQTFNYGDNDLYLRSSYAFSNDDPSKDTLTQGIVFRDGSTESLSLDNKAVAKWDSARVENTLLMGLELQRHQTQGVELDNYSFGTINPFNPNYGNFTPIDESSAADRTITKEQASLYAQYQIKLDQQWIGLIGGRMDWVDTENESQKNMQRKSRSDAEFSFNAGLMYLASNGVSPYLSYSQSFDVLSTIDSAKGELYKPLKGEQTEVGVKYQPEFYDGYINLAWFDITQQNALVTNPTTFVATQTGEMTAQGIEVESVGYVTDSLKLTASYTFTDAKTDETGGKGTQQAGLIPKHQASAWLDYDAAQLGLQGWTFGSGVRYIGESKDNPRSSDRTVPSVTLVDLMAGYEITENWQVQLNINNLFDREFVSGCDYWCYYGQSRSAVLSANYRW | not soluble |
| MAAQQPLSQEQLLHFWGAHNTMGKMTRRTSQSDGGKPSGNSNAAGGAGTKPKVATPQVVAKIEQYKRDNPTIFAWEIREKLISEDVCTTPPSVSSINRILRTRAAERAAEELQMILSAQHLARPRAQQVRLPPAFPFPFPLVWPGLLPNPAQLSLLLNSGALAPPVQSGGAGGPGVFGNSGQISVDSNLNLSEDDSTLGANARRLSRSTFTNEQLQSLEEVFLRDPYPSPNERADLVKRTNLPEARIQVWFSNRRAKWRKTNANGSDRDELRAERSETDDALSISSQSPSPGGGQETGSDEGKKKTITLFKPYE | not soluble |
| MSLDIENTLLKQEAWRFIDNTTINPAFDAIQSFATDDTLCRSVGARMVPPTVRGWVHEKTVSLGIQDSKLPDIDKGIAFLQEQGYRVVVRNSGGLAVVLDSGVLNLSMVLPDAERGIAIERGYETMFTLIKDMFVDCNEVIEAKEIVNSYCPGSYDLSIQGQKFAGISQRRMAKGVAVQIYLAVEGDQAARSELIRDFYTISGKDKQTKYSFPDVKPEVMGTLSDLMKENMTVNGCLVRLFNSLRHYAGKLESGTLTPEELDLFPAYYERLIARNDKVLSEGHHHHHH | soluble |
| MGSDKIHHHHHHMNMAHDEQRWLSPRLQKAAALCNQAPAASESPLWLGIDLGTCDVVSMVVDRDGQPVAVCLDWADVVRDGIVWDFFGAVTLVRRHLATLEQQLGCRFTHAATSFPPGTDPRISINVLESAGLEISHVLDEPTAVADLLQLDNAGVVDIGGGTTGIAIVKQGRVTYSADEATGGHHISLTLAGNRGIGLEEAEQYKRSHAGEIWPVVKPVYEKMAEIVARHIAGQGIVDLWLAGGACMQPGVHELFRQRFPALPVHLPQHSLFMTPLAIANSGREKAEGMYAS | not soluble |
| MASIKKVYRGMKNGAETINDDLEAINSELTSGGNVVHKTGDETIAGKKTFTGNVEVNGSLTLPVQTLTVEAGNGLQLQLTKKNNDLVIVRFFGSVSNIQKGWNMSGTWVDRPFRPAAVQSLVGHFAGRDTSFHIDINPNGSITWWGANIDKTPIATRGNGSYFIK | soluble |
| MGSDKIHHHHHHMSVLIECRDLSHSYGEKTVLHDLSFTVRQGGVFGLLGKNGAGKSTTINILMGFLRPGSGSCRVLGEPSHALSPHARRRIGLLHEGFIQYDFMTIAELERYYAAFYPLWDRSVFFDLTDRLQVPYSRRISCLSCGQRSQVVLGLIMAQQPQLMILDDYSMGLDVGYRRLFIDFLREYVAKRGTTVLLTSHVVQELDKIVDNMIVLREGRVAVSGSKKEFMDSFRCYSFARSPASDALHADTVLENVEHMGSVTTVYAFADGEPVARHLRDRGVDPQNMTPVPMDFEDAFVGLTGKY | not soluble |
| MSCINLPTVLPGSPSKTRGQIQVILGPMFSGKSTELMRRVRRFQIAQYKCLVIKYAKDTRYSSSFCTHDRNTMEALPACLLRDVAQEALGVAVIGIDEGQFFPDIMEFCEAMANAGKTVIVAALDGTFQRKPFGAILNLVPLAESVVKLTAVCMECFREAAYTKRLGTEKEVEVIGGADKYHSVCRLCYFKKASGQPAGPDNKENCPVPGKPGEAVAARKLFAPQQILQCSPAN | soluble |
| MSLEKKHSVNVEIENPPGRFFIPEDYVQNPVERLRLYRRLASSLDEEDLEEILEEMKDRFGEPPEEVKLLVDYFRLRVRASKLGIKKIRFDHSMVEIFPSRNSPFLNHPRYDRRSGSVVLYTRKDPVEFLMDMKGIITITTDPNSSSVDKLAAALEHHHHHH | soluble |
| MKSHQFSTALCQNTTESNGQPLRFPSPAKLNLFLYINGKFPNGYHELQTLFQFLDFGDWLDISIREQDNQIVLTPEIPNLKTENNLIYRAAKLLQEKANIQLGANIHLDKILPMGGGVGGGSSNAATALVSLNYLWQANLSIDELAKLGLTLGADVPIFVHGHAAFAEGVGEKITYCEPAEKWFVILKPDDSISTAVIFQDPNLPRNTPKKSLAQLLSEPYKNDCEKVVINHYSNVEKALNWLLQYAPARLTGTGACVFAEFDHEAEAQAVFRQKPEAFFGFVAKGLNVSPLHAMLKQLSSTHTHRQSKPEVLLEHHHHHH | soluble |
| MNYSLRQLRIFITVAQAKSFSRAGDRIGLSQSAVSHSVKELERQTGVRLLDRTTREVVLTEAGQQLATRLERVLDELNSILRDAGRVGTQLTGTVRVAASQTISAHLIPQCIAQSNSLYPAIDFVLHDRPQQWVLESIRQGEVDFGIVIDPGAAVDLQCEAILSEPFLLLCRQDHPLAHQEWVSWQDLKQASLVLQDYASGSRPLIDAALAHFAIEADIVQEIGHPATLFPMVEAGIGISVLPALALPLPQGSHLQVKRLTPVVERQLMLARRKNRSLSTAAQALWDVVRTQASELTAARAKDPLYQL | not soluble |
| MEIRWMKSFVAVAEELNYGRAAEVLHIAQPAVSQQVQQLEKRLGVKLFDRTTRSVRLTAAGERFLQPCKDALAGIVRAVDAAVIADPAVEGRVRVGFSGAYGQTELSSLARSVRRRYPLIDLVLEGATVSGQILDEIWEGQLDLGIVSDAVSHPHVLTRQISVEYLSALLPSDHPLAERKSIDLAELRDETFVANPAATGSTLRRDLLAACRDAGFTPNIVQETTDGIVLTALVAAGVGVALVPGDVQTYPNRVVLVPLDAGRYEVRAALAWSDRPVSPVVQTVLDLAAEVLPSPDALAVEQ | not soluble |
| VDLGSKSSNSTCRLNVTELASIHPGETWTLHGMCISICYYENVTEDEIIGVAFTWQHNESVVDLWLYQNDTVIRNFSDITTNILQDGLKMRTVPVTKLYTSRMVTNLTVGRYDCLRCENGTTKIIERLYVRLGSLYPRPPGSGLAKHPSVSADEELSA | soluble |
| MQGQHPPAELPSLRRQKILLLLERDGKVMAAELSRHFAVSEDTIRRDLAELDAGGLVQRVHGGALPRPKDSGKDYFTRVGETNEAKLRLAQYAVQWVQDGQTVLFDSGSTTLHIAQSLPAGISLTAVTASPMIAVALAEYPKVRVILAGGQLNPATLSASGHEALRMIQGIKADLMFTGVCAIHPEIGISSLHFDEVPIKQAMFDSASEVIAVTTADKLGAMEPFVVVPCNRLHRLVTEQEAPGVDIEGYRQLGIEVLQVLEHHHHHH | not soluble |
| MANSAGSMADNSKTRVVVGMSGGVDSSVTALLLKEQGYDVIGIFMKNWDDTDENGVCTATEDYKDVAKVADQIGIPYYSVNFEKEYWDRVFEYFLAEYRLGRTPNPDVMCNKEIKFKAFLDYAMQLGADYVATGHYAQVETDENGVVHMLRGIDNNKDQTYFLSQLSQAQLAKTMFPLGGMEKSEVRAIAERAGLATAKKKDSTGVCFIGEKNFKEFLSNYLPAKKGNMVTEDGEIKGQHDGLMYYTIGQRQGLGIGGGGKTQEPWFVIGKDLTTNTLYVGQGFHHEKLYATHLEASEVHFTVDTPMPKEFDCTAKFRYRQADIPVHVSLSEDGTKATVTFKEPARAVTPGQAVVFYDGMECLGGGLIDRAYQDEKELQYVLEHHHHHH | not soluble |
